For test [1], the system named is ICB DNA sequence (ICB1/ICB2 boxes of the human topoisomerase IIα promoter). Kind of test: Gel retardation (acrylamide gel) binding of protein to 32P-labelled ICB oligonucleotides. Conditions: 1 μg protein, 1 ng 32P-labelled oligonucleotide, competition with non-labelled oligonucleotides. Here is the method: To test the ability of the 59 kDa protein to bind specifically to the ICB1 and/or ICB2 boxes, three tandem copies of ICB2 (ICB2X3, sequences described above) were labelled at the terminal end with 32 P phosphore using the T4 polynucleotide kinase (New England Biolabs) and […] (160 mCi/mmol, ICN Irvine, Calif., USA). To examine the specificity of the binding, oligonucleotides containing only one copy of the CCAAT box were synthesized:
The ICBP-59 protein (1 μg) was incubated with 1 ng of oligonucleotide and labelled at its terminal end by phosphorous ^32P in 12% glycerol, 12 mM HEPES-NaOH (pH 7.9), 60 mM KCl, 4 mM Tris-HCl (pH 7.9), 100 ng BSA, 0.6 mM DTT, and 100 ng poly(dI/dC) in 20 μl (Inouye et al., 1994). After a 30-minutes incubation at room temperature, the reaction mix was loaded in 6% polyacrylamide gels. In competition experiments, the quantity indicated of non-labelled oligonucleotides were added to the reaction mix 10 minutes before the addition of proteins. To examine the binding properties of ICBP90 with regard to the ICB2 box, we used the same protocol except that labelled oligonucleotide contained only one copy of the CCAAT sequence as described below:
Binding specificity was studied using a non-labelled nucleotide containing a GC box of the human topoisomerase IIa promoter: […]

The target in test [2] is T1, TIP60 (Tat Interactive Protein, 60 kDa) (Homo sapiens, UniProt Q92993).
T1 construct: expressed in transfected cells; own knowledge
Kind of test: Double-hybrid technique, protein-protein interaction. The class given is binding. The text has this: The TIP60 protein has very recently been described as being a coactivator of the nuclear receptor, especially the receptor for the androgens (Brady M E et al., 1999).

T1 sequence (Q92993 whole entry, species assumed): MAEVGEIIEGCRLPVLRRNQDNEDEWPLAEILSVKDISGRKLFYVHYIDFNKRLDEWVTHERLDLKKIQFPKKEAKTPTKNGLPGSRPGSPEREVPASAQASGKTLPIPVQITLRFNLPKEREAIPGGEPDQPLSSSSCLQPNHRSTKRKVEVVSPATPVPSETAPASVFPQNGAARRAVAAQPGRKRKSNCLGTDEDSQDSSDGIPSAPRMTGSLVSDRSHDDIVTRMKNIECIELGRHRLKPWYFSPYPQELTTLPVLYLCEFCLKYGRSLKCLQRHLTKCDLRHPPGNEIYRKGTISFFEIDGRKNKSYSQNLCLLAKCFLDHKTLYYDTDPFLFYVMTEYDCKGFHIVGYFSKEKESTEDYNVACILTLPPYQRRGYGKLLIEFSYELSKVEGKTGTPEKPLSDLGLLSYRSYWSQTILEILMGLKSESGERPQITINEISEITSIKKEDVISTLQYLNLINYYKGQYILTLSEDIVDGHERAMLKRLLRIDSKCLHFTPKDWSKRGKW

B1: ICBP90: Inverted CCAAT Box Binding Protein of 90 kDa, 793 amino acids, SEQ ID No.2 (protein, listed as Homo sapiens)
chain: MWIQVRTMDGRQTHTVDSLSRLTKVEELRRKIQELFHVEPGLQRLFYRGKQMEDGHTLFDYEVRLNDTIQLLVRQSLVLPHSTKERDSELSDTDSGCCLGQSESDKSSTHGEAAAETDSRPADEDMWDETELGLYKVNEYVDARDTNMGAWFEAQVVRVTRKAPSRDEPCSSTSRPALEEDVIYHVKYDDYPENGVVQMNSRDVRARARTIIKWQDLEVGQVVMLNYNPDNPKERGFWYDAEISRKRETRTARELYANVVLGDDSLNDCRIIFVDEVFKIERPGEGSPMVDNPMRRKSGPSCKHCKDDVNRLCRVCACHLCGGRQDPDKQLMCDECDMAFHIYCLDPPLSSVPSEDEWYCPECRNDASEVVLAGERLRESKKNAKMASATSSSQRDWGKGMACVGRTKECTIVPSNHYGPIPGIPVGTMWRFRVQVSESGVHRPHVAGIHGRSNDGSYSLVLAGGYEDDVDHGNFFTYTGSGGRDLSGNKRTAEQSCDQKLTNTNRALALNCFAPINDQEGAEAKDWRSGKPVRVVRNVKGGKNSKYAPAEGNRYDGIYKVVKYWPEKGKSGFLVWRYLLRRDDDEPGPWTKEGKDRIKKLGLTMQYPEGYLEALANREREKENSKREEEEQQEGGFASPRTGKGKWKRKSAGGGPSRAGSPRRTSKKTKVEPYSLTAQQSSLIREDKSNAKLWNEVLASLKDRPASGSPFQLFLSKVEETFQCICCQELVFRPITTVCQHNVCKDCLDRSFRAQVFSCPACRYDLGRSYAMQVNQPLQTVLNQLFPGYGNGR
B1: the “ability to bind specifically an ICB DNA sequence” value in test [1] was “identical from top to bottom to that observed for ICBP-59”. For the same molecule, the “interaction with TIP60” value in test [2] is given as “existence of interactions”.

B2: ICBP-59: 59 kDa C-terminal fragment, amino acids 263 to 793 of SEQ ID NO. 2 (protein, listed as Homo sapiens)
chain: DDSLNDCRIIFVDEVFKIERPGEGSPMVDNPMRRKSGPSCKHCKDDVNRLCRVCACHLCGGRQDPDKQLMCDECDMAFHIYCLDPPLSSVPSEDEWYCPECRNDASEVVLAGERLRESKKNAKMASATSSSQRDWGKGMACVGRTKECTIVPSNHYGPIPGIPVGTMWRFRVQVSESGVHRPHVAGIHGRSNDGSYSLVLAGGYEDDVDHGNFFTYTGSGGRDLSGNKRTAEQSCDQKLTNTNRALALNCFAPINDQEGAEAKDWRSGKPVRVVRNVKGGKNSKYAPAEGNRYDGIYKVVKYWPEKGKSGFLVWRYLLRRDDDEPGPWTKEGKDRIKKLGLTMQYPEGYLEALANREREKENSKREEEEQQEGGFASPRTGKGKWKRKSAGGGPSRAGSPRRTSKKTKVEPYSLTAQQSSLIREDKSNAKLWNEVLASLKDRPASGSPFQLFLSKVEETFQCICCQELVFRPITTVCQHNVCKDCLDRSFRAQVFSCPACRYDLGRSYAMQVNQPLQTVLNQLFPGYGNGR
With B2, the “ability to bind specifically an ICB DNA sequence” value in test [1] is “can specifically bind an ICB DNA sequence”.

The record behind these values is patent US7199218B1, “ICBP90 polypeptide and its fragments and polynucleotides coding for said polypeptides and applications for diagnosing and treating cancer” (Institut National de la Sante et de la Recherche Medicale …, priority 1999, dated 2007).
